Experimental findings from publication PMC6698653 are described below.

In series [1] the target is T1, BmLARK (Bombyx mori (cDNA from Bm12 cells), UniProt Q5I7M6 1-343). Put plainly: MST.
Series [2] deals with T1, BmLARK. In words: EMSA.
The target in the next series is T2, MmLARK (Mus musculus, UniProt Q8C7Q4 1-361).
T2 sequence: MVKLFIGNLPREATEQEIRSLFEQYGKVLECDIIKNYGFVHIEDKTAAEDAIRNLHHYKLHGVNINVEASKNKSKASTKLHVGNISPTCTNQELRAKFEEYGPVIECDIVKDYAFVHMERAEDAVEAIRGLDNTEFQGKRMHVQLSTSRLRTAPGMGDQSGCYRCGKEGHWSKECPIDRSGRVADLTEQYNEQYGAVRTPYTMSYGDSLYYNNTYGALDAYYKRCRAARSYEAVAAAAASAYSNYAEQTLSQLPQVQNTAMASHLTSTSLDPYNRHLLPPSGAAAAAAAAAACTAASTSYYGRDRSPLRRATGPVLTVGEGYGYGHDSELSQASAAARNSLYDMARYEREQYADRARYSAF
Put plainly: EMSA. In general terms: In EMSA bound probe runs differently from free probe, usually more slowly.

The target of a further series is HsLARK (Homo sapiens, UniProt Q9BWF3 1-364). Put plainly: EMSA.
A further series addresses DmLARK (Drosophila melanogaster, UniProt Q94901 1-352). In words: EMSA.
In the next series the target is BmLARK ZnF (Bombyx mori, UniProt Q5I7M6 155-343). Put plainly: EMSA.

Sequence of DmLARK (Q94901 whole entry): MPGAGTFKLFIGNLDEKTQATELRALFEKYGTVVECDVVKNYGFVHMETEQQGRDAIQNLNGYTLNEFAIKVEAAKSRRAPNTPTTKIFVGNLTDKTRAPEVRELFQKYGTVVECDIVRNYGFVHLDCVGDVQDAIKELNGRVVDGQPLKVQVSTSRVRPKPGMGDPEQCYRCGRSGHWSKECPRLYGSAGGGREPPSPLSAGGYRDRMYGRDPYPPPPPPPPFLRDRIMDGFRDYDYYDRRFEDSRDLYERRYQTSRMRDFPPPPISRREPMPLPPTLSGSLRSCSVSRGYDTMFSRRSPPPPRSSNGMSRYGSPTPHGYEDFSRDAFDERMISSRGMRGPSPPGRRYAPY

Take GGCGGGGGCGGGGGGACGGGGCGGGGGGGGCGG (structured_DNA) [159 G4]: the Kd (usually the equilibrium constant for the complex coming apart) with BmLARK [1] was found to be 114 nM.
In the series with BmLARK [1], GGTACGGGGGTGCAGGGGCGGCGGGGGGCGCGGGGTGG (structured_DNA) [558 G4] returned a Kd of 120 nM.
GTGTCGCAGTGCCACAGTGTGCTGAGCAGTGTCCGCG (ssDNA) [142 ssDNA (mutant G4)]: the binding result with BmLARK [2] is given as “no binding”.
Regarding TTTTTCGGGCGGGCGCGAGGGAGGGG (structured_DNA) [c-kit G4], the affinity with BmLARK [1], expressed as Kd, was 126 nM. For the same molecule, the binding result in the series with MmLARK and with HsLARK was “binds” throughout.
Regarding CCAGTGCGATGCGCGAGTGAGCCGAGTAGCAGTGCAACAA (ssDNA) [BmPOUM2 ssDNA (mutant G4)], in the series with BmLARK [2], the binding result is recorded as “no binding”.
As for GGGTCGCGGGGCCACGGGGGGCGGGGCGGGGGCCGCG (structured_DNA) [142 G4], the Kd with BmLARK [1] was determined as 107 nM.
For the molecule GGTACTGTGATGCAAGTGCGGCAGTGAGCGCAGTGTGG (ssDNA) [558 ssDNA (mutant G4)], in the series with BmLARK [2], the binding result was “no binding”.
Turning to GGCAGTGTCAGTGAGACAGAGCAGTGTGTGCGG (ssDNA) [159 ssDNA (mutant G4)], the binding result with BmLARK [2] is “no binding”.
As for GCGAGGGCGGGGGAGAGGGGAGGGGCGCG (structured_DNA) [HIF-1a G4], the Kd with BmLARK [1] came to 131 nM.
Molecule TTATGGGGAGGGTGGGGAGGGTGGGGAAGG (structured_DNA) [c-MYC G4] came in with a Kd in the series with BmLARK [1] of 269 nM. The binding result with MmLARK and in the series with HsLARK was “binds” each time.
As for CCAGTGCGGGGCGCGAGGGGGCCGAGGGGCGGGGCAACAA (structured_DNA) [BmPOUM2 G4], binding with BmLARK [1] was put at a Kd of 111 nM. For the same molecule, the binding result in the series with MmLARK is “binds”; with HsLARK, “binds”; in the series with DmLARK, “binds”; with BmLARK ZnF, “no binding”.
